Measured values reported in the RNAGym collection of RNA variant scans (doi:10.7554/elife.80360).

B1: CPEB3 Ribozyme (parent)
chain: GGGGGCCACAGCAGAAGCGUUCACGUCGCGGCCCCUGUCAGAUUCUGGUGAAUCUGCGAAUUCUGCUGU

Variants of: B1
Experiment: self-cleavage, relative activity (ratio to wild type); higher = more cleavage; co-transcriptional

Compared with GGGGGCCACAGCAGAAGCGUUCACGUCGCGGCCCCUGUCAGAUUCUGGGGAAUCUGCGAUUUCUGCUGU [U49G A60U], GGGGGCCACAGCAGAAGCGUUCACGUCGCGGCCCCUGUCAGAUUCUGGGGAAUCUGCGAGUUCUGCUGU [U49G A60G] is higher in self-cleavage: 0.432 for the first, 0.948 for the second.

Going from GGGGGCCACAGCAGAAGCGUUCACGUCGCGGCCCCUGUCAGAUUCUGGGGAAUCUGCGAAUUCUGCUUU [U49G G68U] to GGGGGCCACAGCAGAAGCGUUCACGUCGCGGCCCCUGUCAGAUUCUGGUAACUCUGCGAAUUCUGCUGU [G50A A52C], the self-cleavage rises from 1.01 to 1.04.

First: GGGGGCCACAGCAGAAGCGUUCACGUCGCGGCCCCUGUCAGAUUCUGGUAAUUCUGCGAAUUCUGCUGU [G50A A52U]
Second: GGGGGCCACAGCAGAAGCGUUCACGUCGCGGCCCCUGUCAGAUUCUGGCGAAUCUGCGACUUCUGCUGU [U49C A60C]
The self-cleavage of the first is higher: 0.993 for the first, 0.354 for the second.

Compared with GGGGGCCACAGCAGAAGCGUUCACGUCGCGGCCCCUGUCAGAUUCUGGCGAAUCUGCGAUUUCUGCUGU [U49C A60U], GGGGGCCACAGCAGAAGCGUUCACGUCGCGGCCCCUGUCAGAUUCUGGGGAAUCUGCGAAUUCUGCUGG [U49G U69G] is higher in self-cleavage: 0.535 for the first, 1.02 for the second.

Going from GGGGGCCACAGCAGAAGCGUUCACGUCGCGGCCCCUGUCAGAUUCUGGGGAAUCGGCGAAUUCUGCUGU [U49G U55G] to GGGGGCCACAGCAGAAGCGUUCACGUCGCGGCCCCUGUCAGAUUCUGGGGAAUCCGCGAAUUCUGCUGU [U49G U55C], the self-cleavage falls from 0.819 to 0.814.

First: GGGGGCCACAGCAGAAGCGUUCACGUCGCGGCCCCUGUCAGAUUCUGGCGAAUCUGCGAAUUCUGCUCU [U49C G68C]
Second: GGGGGCCACAGCAGAAGCGUUCACGUCGCGGCCCCUGUCAGAUUCUGGCGAAUCUGCGAAUUCUGCUAU [U49C G68A]
The self-cleavage of the first is lower: 0.998 for the first, 1.01 for the second.

Compared with GGGGGCCACAGCAGAAGCGUUCACGUCGCGGCCCCUGUCAGAUUCUGGCGAAUCUGCGAAUUCUGCUUU [U49C G68U], GGGGGCCACAGCAGAAGCGUUCACGUCGCGGCCCCUGUCAGAUUCUGGCGAAUCUGCGAAUUCUGCUGG [U49C U69G] is higher in self-cleavage: 1.03 for the first, 1.05 for the second.

GGGGGCCACAGCAGAAGCGUUCACGUCGCGGCCCCUGUCAGAUUCUGGCGAAUCUGCGAAUUCUGCUGA [U49C U69A] and GGGGGCCACAGCAGAAGCGUUCACGUCGCGGCCCCUGUCAGAUUCUGGCGAAUCUGCGAAUUCUGCUGC [U49C U69C] are the same in self-cleavage: 1.04 for the first, 1.04 for the second.

Compared with GGGGGCCACAGCAGAAGCGUUCACGUCGCGGCCCCUGUCAGAUUCUGGCGAAUCUGCGAAUUCCGCUGU [U49C U64C], GGGGGCCACAGCAGAAGCGUUCACGUCGCGGCCCCUGUCAGAUUCUGGCGAAUCUGCGAAUUCUGCAGU [U49C U67A] is higher in self-cleavage: 0.907 for the first, 0.946 for the second.

First: GGGGGCCACAGCAGAAGCGUUCACGUCGCGGCCCCUGUCAGAUUCUGGCGAAUCUGCGAAUUCUGCGGU [U49C U67G]
Second: GGGGGCCACAGCAGAAGCGUUCACGUCGCGGCCCCUGUCAGAUUCUGGCGAAUCUGCGAAUUCUGCCGU [U49C U67C]
The self-cleavage of the first is lower: 0.969 for the first, 0.986 for the second.

Going from GGGGGCCACAGCAGAAGCGUUCACGUCGCGGCCCCUGUCAGAUUCUGGCGAAUCUGCGAAUUCUCCUGU [U49C G65C] to GGGGGCCACAGCAGAAGCGUUCACGUCGCGGCCCCUGUCAGAUUCUGGCGAAUCUGCGAAUUCUACUGU [U49C G65A], the self-cleavage rises from 0.634 to 0.89.

Compared with GGGGGCCACAGCAGAAGCGUUCACGUCGCGGCCCCUGUCAGAUUCUGGCGAAUCUGCGAAUUCUUCUGU [U49C G65U], GGGGGCCACAGCAGAAGCGUUCACGUCGCGGCCCCUGUCAGAUUCUGGGGAAUCUGGGAAUUCUGCUGU [U49G C57G] is lower in self-cleavage: 0.79 for the first, 0.284 for the second.

Going from GGGGGCCACAGCAGAAGCGUUCACGUCGCGGCCCCUGUCAGAUUCUGGGGAAUCUGUGAAUUCUGCUGU [U49G C57U] to GGGGGCCACAGCAGAAGCGUUCACGUCGCGGCCCCUGUCAGAUUCUGGGGAAUCUGAGAAUUCUGCUGU [U49G C57A], the self-cleavage rises from 0.282 to 0.425.

First: GGGGGCCACAGCAGAAGCGUUCACGUCGCGGCCCCUGUCAGAUUCUGGGGAAUCUGCGAAUUCUUCUGU [U49G G65U]
Second: GGGGGCCACAGCAGAAGCGUUCACGUCGCGGCCCCUGUCAGAUUCUGGGGAAUCUGCGAAUUCUCCUGU [U49G G65C]
The self-cleavage of the first is higher: 0.787 for the first, 0.607 for the second.

Going from GGGGGCCACAGCAGAAGCGUUCACGUCGCGGCCCCUGUCAGAUUCUGGGAAAUCUGCGAAUUCUGCUGU [U49G G50A] to GGGGGCCACAGCAGAAGCGUUCACGUCGCGGCCCCUGUCAGAUUCUGGUAUAUCUGCGAAUUCUGCUGU [G50A A51U], the self-cleavage falls from 1.02 to 0.987.

First: GGGGGCCACAGCAGAAGCGUUCACGUCGCGGCCCCUGUCAGAUUCUGGUAGAUCUGCGAAUUCUGCUGU [G50A A51G]
Second: GGGGGCCACAGCAGAAGCGUUCACGUCGCGGCCCCUGUCAGAUUCUGGGGAUUCUGCGAAUUCUGCUGU [U49G A52U]
The self-cleavage of the first is lower: 0.978 for the first, 0.986 for the second.

Going from GGGGGCCACAGCAGAAGCGUUCACGUCGCGGCCCCUGUCAGAUUCUGGGGACUCUGCGAAUUCUGCUGU [U49G A52C] to GGGGGCCACAGCAGAAGCGUUCACGUCGCGGCCCCUGUCAGAUUCUGGGGAAUCUGCGAAUUCAGCUGU [U49G U64A], the self-cleavage rises from 0.952 to 0.985.

Compared with GGGGGCCACAGCAGAAGCGUUCACGUCGCGGCCCCUGUCAGAUUCUGGCGAAUCUGCGAAUUCUGUUGU [U49C C66U], GGGGGCCACAGCAGAAGCGUUCACGUCGCGGCCCCUGUCAGAUUCUGGCGAAUCUGCGAAUUCUGGUGU [U49C C66G] is lower in self-cleavage: 0.973 for the first, 0.879 for the second.

First: GGGGGCCACAGCAGAAGCGUUCACGUCGCGGCCCCUGUCAGAUUCUGGCGAAACUGCGAAUUCUGCUGU [U49C U53A]
Second: GGGGGCCACAGCAGAAGCGUUCACGUCGCGGCCCCUGUCAGAUUCUGGCGAAGCUGCGAAUUCUGCUGU [U49C U53G]
The self-cleavage of the first is higher: 0.962 for the first, 0.859 for the second.

Variant GGGGGCCACAGCAGAAGCGUUCACGUCGCGGCCCCUGUCAGAUUCUGGCGAACCUGCGAAUUCUGCUGU [U49C U53C] has a self-cleavage of 0.948.
